The results in this text go back to patent US6828106.

This data set deals with T1, reporter peptide (Example 9, TEV) (not fully specified).
T1 chain: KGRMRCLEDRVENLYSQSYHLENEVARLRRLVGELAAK

B1: TEV (Tobacco Etch Virus) protease (protein)
chain: GESLFKGPRDYNPISSTICHLTNESDGHTTSLYGIGFGPFIITNKHLFRRNNGTLLVQSLHGVFKVKNTTTLQQHLIDGRDMIIIRMPKDFPPFPQKLKFREPQREERICLVTTNFQTKSMSSMVSDTSCTFPSSDGIFWKHWIQTKDGQCGSPLVSTRDGFIVGIHSASNFTNTNNYFTSVPKNFMELLTNQEAQQWVSGWRLNADSVLWGGHKVFMSKPEEPFQPVKEATQLMNELVYSQ
For B1, the “Km of TEV protease by FP analysis” value is listed as 36 µM and the “Km of TEV protease by FRET analysis” value came out at 36 µM.
